US20220145343A1 (priority 2019, published 2022)

Experiments:
Experiment in all cases: purified protein, by the assay type
[1] = tested on: CC(=O)N[C@H]1[C@H]([C@H](O)[C@H](O)CO)O[C@@](OCCCNC(=O)OCc2ccccc2)(C(=O)O)C[C@@H]1O[C@H]1O[C@H](CO)[C@H](O)[C@H](O)[C@H]1O; conditions: other: apparent, varying acceptor, 10 mM CMP-Neu5Ac, pH 8.0, 30° C.
[2] = tested on: CC(=O)N[C@H]1[C@H]([C@H](O)[C@H](O)CO)O[C@@](OC[C@H]2O[C@H](O[C@H]3C[C@](OC[C@H]4O[C@H](O[C@H]5C[C@](OCCCNC(=O)OCc6ccccc6)(C(=O)O)O[C@@H]([C@H](O)[C@H](O)CO)[C@@H]5NC(C)=O)[C@H](O)[C@@H](O)[C@H]4O)(C(=O)O)O[C@@H]([C@H](O)[C@H](O)CO)[C@@H]3NC(C)=O)[C@H](O)[C@@H](O)[C@H]2O)(C(=O)O)C[C@@H]1O[C@H]1O[C@H](CO)[C@H](O)[C@H](O)[C@H]1O; conditions: other: apparent, varying acceptor, 10 mM CMP-Neu5Ac, pH 8.0, 30° C.
[3] = tested on: CC(=O)N[C@H]1[C@H]([C@H](O)[C@H](O)CO)O[C@@](OC[C@H]2O[C@H](O[C@H]3C[C@](OCCCNC(=O)OCc4ccccc4)(C(=O)O)O[C@@H]([C@H](O)[C@H](O)CO)[C@@H]3NC(C)=O)[C@H](O)[C@@H](O)[C@H]2O)(C(=O)O)C[C@@H]1O[C@H]1O[C@H](CO)[C@H](O)[C@H](O)[C@H]1O; conditions: other: apparent, varying acceptor, 10 mM CMP-Neu5Ac, pH 8.0, 30° C.
[4] = tested on: CC(=O)N[C@H]1[C@H]([C@H](O)[C@H](O)CO)O[C@@](OC[C@H]2O[C@H](O[C@H]3C[C@](OC[C@H]4O[C@H](O[C@H]5C[C@](OC[C@H]6O[C@H](O[C@H]7C[C@](OC[C@H]8O[C@H](O[C@H]9C[C@](OCCCNC(=O)OCc%10ccccc%10)(C(=O)O)O[C@@H]([C@H](O)[C@H](O)CO)[C@@H]9NC(C)=O)[C@H](O)[C@@H](O)[C@H]8O)(C(=O)O)O[C@@H]([C@H](O)[C@H](O)CO)[C@@H]7NC(C)=O)[C@H](O)[C@@H](O)[C@H]6O)(C(=O)O)O[C@@H]([C@H](O)[C@H](O)CO)[C@@H]5NC(C)=O)[C@H](O)[C@@H](O)[C@H]4O)(C(=O)O)O[C@@H]([C@H](O)[C@H](O)CO)[C@@H]3NC(C)=O)[C@H](O)[C@@H](O)[C@H]2O)(C(=O)O)C[C@@H]1O[C@H]1O[C@H](CO)[C@H](O)[C@H](O)[C@H]1O; conditions: other: apparent, varying acceptor, 10 mM CMP-Neu5Ac, pH 8.0, 30° C.
[5] = tested on: CC(=O)N[C@H]1[C@H]([C@H](O)[C@H](O)CO)O[C@@](OC[C@H]2O[C@H](O[C@H]3C[C@](OC[C@H]4O[C@H](O[C@H]5C[C@](OC[C@H]6O[C@H](O[C@H]7C[C@](OCCCNC(=O)OCc8ccccc8)(C(=O)O)O[C@@H]([C@H](O)[C@H](O)CO)[C@@H]7NC(C)=O)[C@H](O)[C@@H](O)[C@H]6O)(C(=O)O)O[C@@H]([C@H](O)[C@H](O)CO)[C@@H]5NC(C)=O)[C@H](O)[C@@H](O)[C@H]4O)(C(=O)O)O[C@@H]([C@H](O)[C@H](O)CO)[C@@H]3NC(C)=O)[C@H](O)[C@@H](O)[C@H]2O)(C(=O)O)C[C@@H]1O[C@H]1O[C@H](CO)[C@H](O)[C@H](O)[C@H]1O; conditions: other: apparent, varying acceptor, 10 mM CMP-Neu5Ac, pH 8.0, 30° C.
[6] = tested on: CC(=O)N[C@H]1[C@H]([C@H](O)[C@H](O)CO)O[C@@](OCCCNC(=O)OCc2ccccc2)(C(=O)O)C[C@@H]1O[C@H]1O[C@H](CO[C@]2(C(=O)O)C[C@H](O[C@H]3O[C@H](CO[C@]4(C(=O)O)C[C@H](O)[C@@H](NC(C)=O)[C@H]([C@H](O)[C@H](O)CO)O4)[C@H](O)[C@H](O)[C@H]3O)[C@@H](NC(C)=O)[C@H]([C@H](O)[C@H](O)CO)O2)[C@H](O)[C@H](O)[C@H]1O; conditions: other: apparent, varying acceptor, 2 mM UDP-Gal, pH 6.5, 30° C.
[7] = tested on: CC(=O)N[C@H]1[C@H]([C@H](O)[C@H](O)CO)O[C@@](OCCCNC(=O)OCc2ccccc2)(C(=O)O)C[C@@H]1O[C@H]1O[C@H](CO[C@]2(C(=O)O)C[C@H](O)[C@@H](NC(C)=O)[C@H]([C@H](O)[C@H](O)CO)O2)[C@H](O)[C@H](O)[C@H]1O; conditions: other: apparent, varying acceptor, 2 mM UDP-Gal, pH 6.5, 30° C.
[8] = tested on: CC(=O)N[C@H]1[C@H]([C@H](O)[C@H](O)CO)O[C@@](OCCCNC(=O)OCc2ccccc2)(C(=O)O)C[C@@H]1O; conditions: other: apparent, varying acceptor, 2 mM UDP-Gal, pH 6.5, 30° C.

Substance	Km [1] [µM]	kcat [1] [s⁻¹]	kcat/Km [1] [M⁻¹ s⁻¹]	kcat [2] [s⁻¹]	Km [3] [µM]	kcat [3] [s⁻¹]	kcat/Km [3] [M⁻¹ s⁻¹]	kcat [4] [s⁻¹]	kcat [5] [s⁻¹]	Km [6] [µM]	kcat [6] [s⁻¹]	kcat/Km [6] [M⁻¹ s⁻¹]	Km [7] [µM]	kcat [7] [s⁻¹]	kcat/Km [7] [M⁻¹ s⁻¹]	kcat/Km [8] [M⁻¹ s⁻¹]
NmSiaDW sialyltransferase activity (Neisseria meningitidis)	180 ± 40	9.76 ± 0.55	55000	7.03 to 11.9	240 ± 40	23.1 ± 1.1	97000	7.03 to 11.9	7.03 to 11.9							
NmSiaDW galactosyltransferase activity (Neisseria meningitidis)										100 ± 20	5.3 ± 0.2	51000	890 ± 100	8.8 ± 0.4	10000	47
